These results are taken from article PMC10127594.

In the data set the target is T1, Gac (Borrelia burgdorferi sensu stricto B31) (UniProt O51396).
T1 sequence: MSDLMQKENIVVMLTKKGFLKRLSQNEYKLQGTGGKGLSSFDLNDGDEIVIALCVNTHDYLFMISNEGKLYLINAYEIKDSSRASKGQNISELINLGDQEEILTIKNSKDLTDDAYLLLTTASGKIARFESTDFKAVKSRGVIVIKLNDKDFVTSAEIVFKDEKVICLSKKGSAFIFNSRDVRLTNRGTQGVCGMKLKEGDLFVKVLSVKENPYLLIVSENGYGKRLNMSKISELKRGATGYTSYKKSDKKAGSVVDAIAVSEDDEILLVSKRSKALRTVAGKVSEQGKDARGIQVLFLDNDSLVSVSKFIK
Nature of the data set: competition. Particulars: EMSA: 50 mM Tris-HCl (pH not stated), 25 mM KCl, 10% glycerol, 0.01% Tween 20, 100 nM DTT, 1 mM PMSF; 15 min, room temperature; 10 nM probe, 25 nM Gac. A general note: In EMSA bound probe runs differently from free probe, usually more slowly.
For the substance “GTATTAAGTTATATTAATATAAAAGGAGAATATATT (double strand) [ospAB competitor]”, the binding signal (fold reduction) was < 1.3.

With B31 ospC operator/promoter, the binding signal (fold reduction) stood at 2.6.

With Ip89 ospC operator/promoter, the binding signal (fold reduction) came out at 2.

Consider empty pCR2.1 amplicon, for which the binding signal (fold reduction) was < 1.3.

On to “AACAGGCAAAAGGATTTGCCAAAGTCAGAAATT (double strand) [flaB competitor]”, for which the binding signal (fold reduction) was < 1.3.
